Measured values reported in US10279017B2 (priority 2014, dated 2019).
Like-named read-outs stand apart in the source and are kept apart here.

Assays:
[1] = tested on: human aortic smooth muscle cell (HASMC); conditions: coating containing GM6001 compared to metallic substrate only, cited from earlier work
[2] = molecular target: T1, MMP2 (Homo sapiens, UniProt P08253); parameters: endogenous in cells; host or cells: human aortic smooth muscle cells (HASMC); conditions: GM6001 releasing coating vs metal substrate; cited from earlier work
T1 sequence (P08253 110-660): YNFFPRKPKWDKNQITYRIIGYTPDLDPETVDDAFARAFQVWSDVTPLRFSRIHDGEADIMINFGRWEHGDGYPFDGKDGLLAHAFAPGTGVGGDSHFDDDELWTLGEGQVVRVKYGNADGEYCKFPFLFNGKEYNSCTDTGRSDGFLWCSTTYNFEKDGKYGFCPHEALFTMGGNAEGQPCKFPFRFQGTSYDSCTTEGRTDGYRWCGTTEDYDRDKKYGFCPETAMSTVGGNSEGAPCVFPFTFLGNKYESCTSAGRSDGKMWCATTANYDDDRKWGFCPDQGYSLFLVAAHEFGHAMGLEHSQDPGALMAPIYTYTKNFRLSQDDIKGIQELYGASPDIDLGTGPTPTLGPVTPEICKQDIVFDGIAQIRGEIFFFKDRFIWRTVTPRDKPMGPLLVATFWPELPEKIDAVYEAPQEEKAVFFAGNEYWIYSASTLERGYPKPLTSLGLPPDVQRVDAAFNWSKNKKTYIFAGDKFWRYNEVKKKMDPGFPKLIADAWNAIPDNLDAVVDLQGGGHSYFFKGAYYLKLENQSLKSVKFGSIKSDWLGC

[3] = tested on: HASMCs; conditions: GM6001 released from PLGA coating compared to metallic substrate only; cited from earlier work
[4] = molecular target: T2, pseudolysin (Pseudomonas aeruginosa, UniProt P14756); conditions: Cathgart G. R. et al, 2011; cited from earlier work
T2 sequence (P14756 198-498): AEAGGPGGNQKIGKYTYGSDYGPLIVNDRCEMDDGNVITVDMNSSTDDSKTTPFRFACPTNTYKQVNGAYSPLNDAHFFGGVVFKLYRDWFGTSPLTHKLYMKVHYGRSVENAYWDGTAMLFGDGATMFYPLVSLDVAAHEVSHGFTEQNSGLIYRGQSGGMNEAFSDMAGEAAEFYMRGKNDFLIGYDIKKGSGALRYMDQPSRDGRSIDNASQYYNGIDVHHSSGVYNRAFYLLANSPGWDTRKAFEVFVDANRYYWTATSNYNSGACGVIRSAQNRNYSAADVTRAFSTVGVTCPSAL

[5] = tested on: P. aeruginosa (DSM No. 50071); assay: Gentamycin MIC determination, microtiter broth dilution; assay type: cell-based, Pseudomonas aeruginosa; conditions: reference strain DSM No. 50071, partially resistant to Gentamycin
Procedure: (§1) Gentamycin MIC (minimal inhibitory concentration) values were determined using a standard two fold microtiter broth dilution protocol with Nutrient Broth as medium. Midexponential phase cultures of P. aeruginosa reference strain DSM No.: 50071 and two antibiotic-resistant clinical isolates (P. aeruginosa VB7623 and VB7444), which were isolated from the tracheal secrete of a patient, were tested. Antimicrobial susceptibility testing of the clinical isolates was performed by the University Clinic Tubingen. […] Further, the OD (optical density) at 600 nm in the presence and absence of the insect metalloprotease inhibitor IMPI was investigated. For assessing influences of IMPI on bacterial growth final concentrations of IMPI between 20 and 75 μM were used. Bacterial growth was monitored at 37° C. over 48 h. All MIC values were done as triplicates.

[6] = tested on: P. aeruginosa cultures VB7623; assay: growth curves (OD 600 nm) of clinical isolate; assay type: cell-based, Pseudomonas aeruginosa
Procedure: as §1

[7] = tested on: bacillolysin; conditions: cited from earlier work
[8] = tested on: P. aeruginosa (Clinical Isolate VB7623); assay: pyoveridine development and planktonic biofilm in 96-well plate; assay type: cell-based, Pseudomonas aeruginosa; conditions: after 48 h
Procedure: FIG. 9: Comparison of the development of pyoveridine (dark grey background in circular light grey structure, i.e. the plate wells) during growth of P. aeruginosa (Clinical Isolate VB7623 from tracheal secrete, assessed as 4MRGN strain [EUCAST]) in presence (lower rectangle) and absence (upper rectangle) of the M4-metalloprotease inhibitor IMPIα (73 μM; NB-Medium No. 5), and different Gentamycin concentrations (32; 8; 4; 2; 1; 0.5; 0.25; 0.125 μg/ml) in a 96-well plate after 48 h. Pyoveridine is not expressed in the concurrent presence of IMPI and Gentamycin, not even at gentamycin concentrations as low as 0.125 μg/
FIG. 15: Comparison of the development of planctonic biofilm and pyoveridine (grey colour in the wells) during growth of P. aeruginosa (clinical isolate VB7623 from tracheal secrete, assessed as 4MRGN strain [EUCAST]) in the presence (black outlined rectangle) and absence (double outlined rectangle) of the M4-metalloprotease inhibitor IMPI (60 μM; NB-Medium No. 5) in a 96-well plate after 48 h.
as §1

[9] = molecular target: T1, MMP2; conditions: cited from earlier work
[10] = tested on: Pseudomonas aeruginosa; assay: formation of freely suspended biofilm in flocs (FIG. 4); assay type: cell-based; conditions: incubated with IMPIα at 62.5 and 125 ng/ml Gm doses
Procedure: FIG. 4: The formation of freely suspended biofilm in flocs is a successful strategy used by Pseudomonas aeruginosa to overcome stressfull envionmental conditions (e.g. addition of Gentamicin Gm to buffer; Panel A (62.5 ng/ml) and B (125 ng/ml)).

[11] = molecular target: thermolysin (Bacillus thermoproteolyticus, UniProt P00800); conditions: cited from earlier work
Chain of thermolysin (P00800 233-548): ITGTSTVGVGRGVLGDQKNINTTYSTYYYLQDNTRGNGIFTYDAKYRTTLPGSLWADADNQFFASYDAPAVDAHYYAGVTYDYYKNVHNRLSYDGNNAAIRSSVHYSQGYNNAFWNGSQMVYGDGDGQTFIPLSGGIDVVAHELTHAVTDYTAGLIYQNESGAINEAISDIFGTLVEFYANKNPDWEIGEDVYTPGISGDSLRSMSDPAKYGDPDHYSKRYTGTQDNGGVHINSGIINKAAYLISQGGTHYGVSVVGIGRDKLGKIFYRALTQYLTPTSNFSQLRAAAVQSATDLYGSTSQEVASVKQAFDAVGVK

[12] = molecular target: T3, MMP1 (Homo sapiens, UniProt P03956); conditions: cited from earlier work
T3 sequence (P03956 100-469): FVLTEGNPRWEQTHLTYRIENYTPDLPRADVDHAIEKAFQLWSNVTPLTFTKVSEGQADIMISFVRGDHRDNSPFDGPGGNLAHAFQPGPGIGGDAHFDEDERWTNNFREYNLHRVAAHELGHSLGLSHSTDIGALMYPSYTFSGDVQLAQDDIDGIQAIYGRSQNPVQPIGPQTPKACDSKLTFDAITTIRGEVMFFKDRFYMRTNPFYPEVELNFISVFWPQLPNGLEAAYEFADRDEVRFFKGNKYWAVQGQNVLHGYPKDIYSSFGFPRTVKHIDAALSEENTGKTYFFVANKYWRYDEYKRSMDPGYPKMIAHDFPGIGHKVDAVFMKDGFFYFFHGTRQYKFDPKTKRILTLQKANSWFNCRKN

[13] = molecular target: T2, pseudolysin; conditions: cited from earlier work
[14] = tested on: P. aeruginosa; assay: synthesis of siderophore pyoverdine; assay type: cell-based, Pseudomonas aeruginosa; conditions: IMPIα together with the antibiotic gentamycin

For `CNC(=O)[C@H](Cc1c[nH]c2ccccc12)NC(=O)[C@@H](CC(=O)NO)CC(C)C` [GM6001], the “reduction of rate of in vitro cell growth” value ([1]; after 4 days) is listed as 30.7%, the “reduction of rate of in vitro cell growth” value ([1]; after 7 days) is listed as 37.4% and the “MMP-2 activity normalized to cell number” value [2] is listed as “not statistically different”. For the same molecule, the decrease of migration [3] was 21.4%.

For `NC(=O)C(Cc1ccc(O)cc1)NC(=O)C(Cc1ccccc1)NC(=O)CS` (stereo not drawn) [N-mercaptoacetyl-Phe-Tyr-amide], the Ki [4] is listed as 41 nM.

With Gentamicin [Gentamycin] the MIC [5] was 8 µg/mL, the growth rate ([6]; low concentrations of gentamycin, after 26 h in NB-medium) was “enhance growth” and the growth rate ([6]; very low concentrations of gentamycin) was “no effect”.

B1: IMPIα: insect metalloproteinase inhibitor from G. mellonella, 69 amino acids; M4-metalloprotease inhibitor (protein, listed as Galleria mellonella)
chain: IVLICNGGHEYYECGGACDNVCADLHIQNKTNCPIINIRCNDKCYCEDGYARDVNGKCIPIKDCPKIRS
In the case of B1, the IC60 [7] is given as 0.86 nM, the planctonic biofilm ([8]; IMPI 60 μM, no antibiotic) is given as “no plantonic biofilm can be observed” and the pyoveridine secretion ([8]; IMPI 60 μM, no antibiotic, NB-Medium No. 5) is given as “secreted less”. The pyoveridine expression ([8]; IMPIα 73 μM with Gentamycin down to 0.125 μg/ml, NB-Medium No. 5) was “not expressed”, the inhibition [9] was “negligible inhibition” and the biofilm formation [10] was “biofilm formation is prohibited”. The IC60 [11] was 0.62 nM, the inhibition [12] was “negligible inhibition” and the IC60 [13] was 81.66 nM. For the same molecule, the synthesis of pyoverdine [14] was “inhibited synergistically”.
